Source: patent US20030198598A1, “Polypeptide derivatives” (priority 1989, published 2003)
Each block holds one compound with its values, some of them ahead of it. Where a SMILES comes first, the peptide text is derived from it. [ ]: non-standard residue; d: D form. The star is where a group is joined. DTPA = O=C(O)CN(CCN(CC(=O)O)CC(=O)O)CCN(CC(=O)O)CC(=O)*; dPhe(4-Cl) = N[C@H](Cc1ccc(Cl)cc1)C(=O)O

What was measured:
LHRH-receptors = biological target: T1, LHRH-receptors (Rattus norvegicus, UniProt P30969); assay: Binding assay on LHRH receptor positive anterior pituitary membranes; set-up: species or system male Sprague-Dawley rats; conditions: labelled with 0.4 mCi 111InCl3, 10^-6 M (DAla6)LHRH for non-specific binding
T1 construct: LHRH receptor positive anterior pituitary membranes from male Sprague-Dawley rats; from tissue; host or cells: anterior pituitary membranes of male Sprague-Dawley rats
T1 sequence (P30969 1-327): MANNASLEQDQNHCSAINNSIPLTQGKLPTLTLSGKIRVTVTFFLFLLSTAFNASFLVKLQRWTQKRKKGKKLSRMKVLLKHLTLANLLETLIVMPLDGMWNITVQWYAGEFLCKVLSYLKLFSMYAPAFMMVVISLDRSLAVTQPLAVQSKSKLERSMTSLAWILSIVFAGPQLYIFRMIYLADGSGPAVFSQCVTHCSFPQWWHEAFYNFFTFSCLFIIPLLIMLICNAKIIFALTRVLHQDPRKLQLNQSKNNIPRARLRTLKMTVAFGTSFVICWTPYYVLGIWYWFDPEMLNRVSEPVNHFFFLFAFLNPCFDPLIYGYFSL

EGF receptor [1] = biological target: T2, EGF receptor (Homo sapiens, UniProt P00533); assay: Inhibition of specifically bound [125I]-EGF on membranes of an EGF receptor positive human tumor; type: binding; conditions: 30 min at 37° C
T2 construct: Membranes are isolated by differential centrifugation; from tissue; host or cells: EGF receptor positive human tumor (membranes)
Description: (§1) An EGF receptor positive human tumor is removed and immediately stored at −70° C. During the subsequent isolation procedure this material is kept at 0 to 4° C. The tumor tissue is dissected into small cubes prior to homogenisation in 5 parts of Buffer A (20 mM HEPES, 0.1 mM EDTA and 250 mM sucrose, pH 7.4). Membranes are isolated by differential centrifugation. The material is then diluted in the incubation buffer containing 30 mM HEPES, pH 7.4, 1 mg/ml BSA and 1 mM benzamidine. The test mixture (200 μl final volume) contains 100 000 cpm [^125I]-EGF, the tissue (5 to 25 μg protein/assay) and compound of Example 3 at a concentration of 10^−9 M. After mixing the icecold test solution on a vortex the tubes (polypropylene) are transfered to a waterbath and incubated for 30 min at 37° C. The reaction is stopped by addition of icecold Hank's or Tris buffer (4 ml). The Tris buffer contains 10 mM Tris in 0.9% sodium chloride solution and is adjusted to pH 7.4. Routinely, filtration buffers contain 1% BSA (Fraction V) to suppress non-specific binding to the glass fiber filters (type A/E) that have been soaked in the filtration buffer a few minutes prior to use. The tubes are rinsed with 4 ml of the filtration buffer and the rinsing fluid is put over the respective filters. A third wash of the filters is followed by drying and the measurement of the filter-bound radioactivity in a γ-counter. […]

[2] = tested on: EGF receptor positive tumour (MDA 231, MDA 468 or A 431 tumors); set-up: species or system nude mice; conditions: mouse, in vivo, iv
Description: Biodistribution of radioactivity may be determined either with standard imaging techniques in nude mice weighing 20+5 g and bearing an EGF receptor positive tumour (MDA 231, MDA 468 or A 431 tumors) or through serial sacrifice of a number of such animals and determination of the organ radioactivity. Compound of Example 4 is administered i.v. to the animals at a dosage corresponding to 90-10 μCi and the radioactivity is assessed 5 min, 10 min, 15 min, 30 min, 60 min, 20 hrs and 48 hrs.

EGF receptor [3] = biological target: T2, EGF receptor; assay: Similar binding assay with the 111In labelled compound as test substance, non-specific binding with 10^-7 M EGF; conditions: compound of Example 3 labelled with 0.2 mCi 111InCl3; controls with 10^-7 M EGF
Description: as §1, with “The test mixture (200 μl final volume) contains 100 000 cpm [^125I]-EGF, the tissue (5 to 25 μg protein/assay) and compound of Example 3 at a concentration of 10^−9 M.” left out, “γ-counter. The washing of the filters takes approximately 10 sec.” for “γ-counter.”

IC50 (LHRH-receptors): 1.1 nM
Compound: CC(=O)N[C@H](Cc1ccc(Cl)cc1)C(=O)N[C@H](Cc1ccc(Cl)cc1)C(=O)N[C@H](Cc1c[nH]c2ccccc12)C(=O)N[C@@H](CO)C(=O)N[C@@H](Cc1ccc(O)cc1)C(=O)N[C@H](CCCCNC(=O)CN(CCN(CCN(CC(=O)O)CC(=O)O)CC(=O)O)CC(=O)O)C(=O)N[C@@H](CC(C)C)C(=O)N[C@@H](CCCNC(=N)N)C(=O)N1CCC[C@H]1C(=O)N[C@H](C)C(N)=O [^111In labelled compound of Example 8, metal not drawn] (Ac-[dPhe(4-Cl)][dPhe(4-Cl)][dW]SY[dK](DTPA)LRP[dA]-NH2)

IC50 (EGF receptor [1]): 1.3 nM
Compound: DTPA-β-Ala-mEGF [Example 3]

IC50 (EGF receptor [3]): 3 nM
Compound: ^111In Labeled DTPA-β-Ala-mEGF [Example 4]
Localisation of radioactivity 5 minutes after injection [2]: radioactivity is detected in the liver, kidneys, urinary bladder and in the tumor site
Localisation of radioactivity 60 min after injection [2]: Radioactivity is increasing and is localized on the tumor site
